Experimental data as given in patent US20200369737A1 (published 2020).

How the values were obtained:
Experiment in all cases: sandwich ELISA; receptor ECD/Fc chimera captured on anti-Fc plates, biotin-labeled ligand titrated, streptavidin-HRP detection
[1] = biological target: T1, recombinant human EGFR/Fc chimera (receptor extracellular domain/Fc chimera) (human, UniProt P00533 25-645)
T1 construct: extracellular domain; Bought from R&D Systems; Captured on plates coated with anti-Fc antibody; also called HER/Fc chimera-EGFR; HER1; not shown: Fc part (and any linker) of the purchased R&D Systems chimera

[2] = biological target: T2, recombinant human HER4/Fc chimera (receptor extracellular domain/Fc chimera) (human, UniProt Q15303 26-651)
T2 construct: extracellular domain; Bought from R&D Systems; Captured on plates coated with anti-Fc antibody; not shown: Fc part (and any linker) of the purchased R&D Systems chimera
T2 sequence (looked up): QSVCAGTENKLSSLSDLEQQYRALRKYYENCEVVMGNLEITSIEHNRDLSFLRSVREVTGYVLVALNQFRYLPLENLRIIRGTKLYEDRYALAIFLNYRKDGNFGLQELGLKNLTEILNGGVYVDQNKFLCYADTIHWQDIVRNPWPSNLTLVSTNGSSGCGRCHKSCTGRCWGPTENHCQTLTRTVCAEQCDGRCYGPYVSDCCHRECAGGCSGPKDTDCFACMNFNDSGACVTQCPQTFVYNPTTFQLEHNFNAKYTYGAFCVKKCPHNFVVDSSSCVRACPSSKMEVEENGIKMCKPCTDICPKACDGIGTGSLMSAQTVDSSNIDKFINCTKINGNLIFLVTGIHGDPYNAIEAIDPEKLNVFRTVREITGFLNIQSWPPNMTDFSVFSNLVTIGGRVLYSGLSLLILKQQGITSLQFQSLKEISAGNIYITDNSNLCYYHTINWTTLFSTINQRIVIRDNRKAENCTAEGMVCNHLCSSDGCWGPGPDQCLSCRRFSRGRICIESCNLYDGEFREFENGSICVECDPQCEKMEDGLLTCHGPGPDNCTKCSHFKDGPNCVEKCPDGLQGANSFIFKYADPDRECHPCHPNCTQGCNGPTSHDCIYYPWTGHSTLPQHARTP

[3] = biological target: T3, recombinant human HER3/Fc chimera (receptor extracellular domain/Fc chimera) (human, UniProt P21860 20-643)
T3 construct: extracellular domain; Bought from R&D Systems; Captured on plates coated with anti-Fc antibody; not shown: Fc part (and any linker) of the purchased R&D Systems chimera
T3 sequence (P21860 20-643, change not shown): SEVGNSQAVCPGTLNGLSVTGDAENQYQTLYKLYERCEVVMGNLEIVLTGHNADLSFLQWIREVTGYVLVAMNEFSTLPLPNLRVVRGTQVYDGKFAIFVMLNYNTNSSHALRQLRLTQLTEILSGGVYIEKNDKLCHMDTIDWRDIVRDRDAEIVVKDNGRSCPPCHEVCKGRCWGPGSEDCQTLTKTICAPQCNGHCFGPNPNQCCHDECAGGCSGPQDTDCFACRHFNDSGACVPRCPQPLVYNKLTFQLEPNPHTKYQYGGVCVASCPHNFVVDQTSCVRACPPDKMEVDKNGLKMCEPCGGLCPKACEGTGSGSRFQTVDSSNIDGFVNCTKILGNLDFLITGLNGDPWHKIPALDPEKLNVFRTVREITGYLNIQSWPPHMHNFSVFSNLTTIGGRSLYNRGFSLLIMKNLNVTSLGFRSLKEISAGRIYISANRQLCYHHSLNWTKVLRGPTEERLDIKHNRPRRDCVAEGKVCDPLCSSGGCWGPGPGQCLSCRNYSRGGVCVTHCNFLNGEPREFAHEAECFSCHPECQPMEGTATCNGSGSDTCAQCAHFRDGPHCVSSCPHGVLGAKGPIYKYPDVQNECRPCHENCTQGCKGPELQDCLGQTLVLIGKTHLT

- Kd [1]: 5 nM
- Kd [2]: 4 nM
- Kd [3]: 6 nM
B1: Pan-HER DNL B5-3M2 tagged with biotin (ligand)
chain: NSDSECPLSHDGYCLNDGVCMYTEAKDEYACNCVVGYIGERCQYYDLL
modifications: not fully specified; biotin label; paragraph 113 says derivatized at the N-terminus; paragraph 97 says B5-3M2 has two sites for biotinylation, the N terminus and K26
notes: Made in E. coli; also called tagged (biotinylated) DNL; EGF1-48 H16N, I23T, L26K, K28E, R45Y, K48L
